Measurements as given in patent US8187838B2, “β-Galactoside-α2, 6-sialyltransferase, a gene encoding thereof, and a method for producing thereof” (Japan Tobacco Inc., priority 2006, dated 2012).

Legend:
[1] = Confirmation of binding mode of sialic acid with pyridylaminated lactose, HPLC of product; format: biochemical; conditions: crude enzyme solution, CMP-NeuAc, 25° C., 18 hours
Experimental: To determine the binding mode of sialic acid, a reaction using PA-lactose as a substrate was then performed. The enzymatic reaction was accomplished by using the resulting crude enzyme solution and a pyridylaminated sugar chain as a glycosyl acceptor substrate. The pyridylaminated sugar chain used for analysis was pyridylaminated lactose (Galβ1-4Glc-PA, Takara Bio Inc., Japan). To 5 μl of the crude enzyme solution, 1.5 μl of 5 mM CMP-NeuAc and 1.5 μl of 10 pmol/μl glycosyl acceptor substrate were added and reacted at 25° C. for 18 hours. After the reaction, the reaction solution was treated at 100° C. for 2 minutes to inactivate the enzyme, followed by HPLC to analyze the reaction product. The HPLC system used was Shimadzu LC10A (Shimadzu Corporation, Japan) and the analytical column used was Takara PALPAK Type R (Takara Bio Inc., Japan). […] The analysis was performed under the following conditions: flow rate: 1 ml/min, column temperature: 40° C., detection: fluorescence (Ex: 320 nm, Em: 400 nm).
The crude enzyme solution prepared in (4) above from the ISH224-N1C0 or ISH224-N0C0 clone was used to examine whether sialyltransferase expressed by E. coli cells into which ISH224-N0C0/pTrc or ISH224-N1C0/pTrc had been introduced had β-galactoside-α2,6-sialyltransferase activity. […] As a result, PA-6′-sialyllactose (Neu5Acα2-6Galβ1-4Glc-PA) was detected, as in the case of Example 1.

[2] = Sialic acid transfer reaction using various glycosyl acceptor substrates (monosaccharides, disaccharides, trisaccharide); format: biochemical; conditions: for Sialyltransferase activity: pH 5.0, 30° C., 500 mM NaCl
Source text: Cell homogenates prepared from E. coli cells into which JT-ISH-224-derived N1C0 had been introduced and from Photobacterium damselae strain JT0160 were each purified by ion exchange chromatography and hydroxyapatite chromatography to give an electrophoretically single band. The thus purified β-galactoside-α2,6-sialyltransferases were used in the following experiment in order to examine the presence or absence of sialyltransferase activity toward various monosaccharides, disaccharides and trisaccharides.
A reaction solution (24 μl) was prepared to contain CMP-^14C-NeuAc-containing CMP-NeuAc as a glycosyl donor substrate (10.9 nmol (8485 cpm), final concentration in the reaction solution: 0.455 mM), any of various glycosyl acceptor substrates dissolved in 20 mM cacodylate buffer (pH 5.0) (1 μmol, final concentration in the reaction solution: 42 mM), sialyltransferase (3.0 mU for JT-ISH-224-derived N1C0, 4.3 mU for JT0160) and NaCl (final concentration in the reaction solution: 500 mM), and reacted at 30° C. for 2 minutes or 60 minutes. The monosaccharides used as glycosyl acceptor substrates were the following 8 types: methyl-α-D-galactopyranoside (Gal-α-OMe), methyl-β-D-galactopyranoside (Gal-β-OMe), methyl-α-D-glucopyranoside (Glc-α-OMe), methyl-β-D-glucopyranoside (Glc-β-OMe), methyl-α-D-mannopyranoside (Man-α-OMe), methyl-β-D-mannopyranoside (Man-β-OMe), N-acetylgalactosamine ([…]), and N-acetylglucosamine ([…]). The disaccharides used were the following 5 types: lactose (Gal-β1,4-Glc), N-acetyllactosamine (Gal-β1,4-GlcNAc), methyl-β-D-galactopyranosyl-β1,3-N-acetylglucosaminide (Gal-β1,3-GlcNAc-β-OMe), methyl-α-D-galactopyranosyl-α1,3-galactopyranoside (Gal-α1,3-Gal-α-OMe), and methyl-β-D-galactopyranosyl-β1,3-galactopyranoside (Gal-β1,3-Gal-β-OMe). The trisaccharide used was 2′-fucosyllactose (Fuc-α1,2-Galβ1,4-Glc). It should be noted that the final concentration was set to 8.4 mM for the sugar chains shown in Table 4-2, i.e., methyl-α-D-galactopyranosyl-α1,3-[…] (Gal-α1,3-Gal-α-OMe), methyl-β-D-galactopyranosyl-β1,3-galactosaminide (Gal-β1,3-Gal-β-OMe) and 2′-fucosyllactose (Fuc-α1,2-Galβ1,4-Glc).
After completion of the enzymatic reaction, 1.98 ml of 5 mM phosphate buffer (pH 6.8) was added to the reaction solution to stop the enzymatic reaction. Then, the enzymatic reaction solution was diluted with 5 mM phosphate buffer (Ph 6.8) and applied in a volume of 2 ml to a AG1-×2Resin (PO4^3− form, 0.2×2 cm) column. This column was prepared as follows: AG1-×2Resin (OH^− form, BIO-RAD) was suspended in 1 M phosphate buffer (pH 6.8), and after 30 minutes, the resin was washed with distilled water and then suspended in distilled water. The eluate (0 to 2 ml) from this column was measured for its radioactivity. The eluate from this column contains the unreacted glycosyl acceptor substrate and the ^14C-NeuAc (N-acetylneuraminic acid)-bound reaction product which was generated by the reaction, whereas unreacted CMP-^14C-NeuAc is still retained on the column. Thus, the radioactivity of ^14C from each sialic acid-containing sugar chain generated as a result of the enzymatic reaction arises exclusively from the reaction product, so that the radioactivity of this fraction can be used to calculate the enzyme activity.
In the manner described above, the radioactivity of NeuAc transferred to each glycosyl acceptor substrate was measured to calculate the amount of transferred sialic acid.

B1: ISH224-N1C0 (protein, listed as Photobacterium sp.)
chain: MSEENTQSIIKNDINKTIIDEEYVNLEPINQSNISFTKHSWVQTCGTQQLLTEQNKESISLSVVAPRLDDDEKYCFDFNGVSNKGEKYITKVTLNVVAPSLEVYVDHASLPTLQQLMDIIKSEEENPTAQRYIAWGRIVPTDEQMKELNITSFALINNHTPADLVQEIVKQAQTKHRLNVKLSSNTAHSFDNLVPILKELNSFNNVTVTNIDLYDDGSAEYVNLYNWRDTLNKTDNLKIGKDYLEDVINGINEDTSNTGTSSVYNWQKLYPANYHFLRKDYLTLEPSLHELRDYIGDSLKQMQWDGFKKFNSKQQELFLSIVNFDKQKLQNEYNSSNLPNFVFTGTTVWAGNHEREYYAKQQINVINNAINESSPHYLGNSYDLFFKGHPGGGIINTLIMQNYPSMVDIPSKISFEVLMMTDMLPDAVAGIASSLYFTIPAEKIKFIVFTSTETITDRETALRSPLVQVMIKLGIVKEENVLFWADLPNCETGVCIAV
[1]
  β-galactoside-α2,6-sialyltransferase activity (PA-6′-sialyllactose detected): found to have β-galactoside-α2,6-sialyltransferase activity
[2]; 14 monosaccharides, disaccharides and trisaccharide
  acceptor substrate specificity compared to the known JT0160 enzyme (in words): wider range of acceptor substrate specificity
[2]; acceptor 2′-Fucosyllactose (Fuc-α1,2-Galβ1,4-Glc), 8.4 mM, lactose = 100
  Sialyltransferase activity Relative activity (%): 92.1%
[2]; acceptor 2′-Fucosyllactose (Fuc-α1,2-Galβ1,4-Glc), 8.4 mM
  Sialyltransferase activity: 1.316 nmol/min
[2]; acceptor Lactose (Galβ1,4-Glc), 42 mM, Table 4-1
  Sialyltransferase activity: 1.875 nmol/min
[2]; acceptor Lactose (Galβ1,4-Glc), 42 mM, Table 4-1, set to 100
  Sialyltransferase activity Relative activity (%): 100.0%
[2]; acceptor Lactose (Galβ1,4-Glc), series of Table 4-2 (other acceptors 8.4 mM)
  Sialyltransferase activity: 1.428 nmol/min
[2]; acceptor Lactose (Galβ1,4-Glc), series of Table 4-2, set to 100
  Sialyltransferase activity Relative activity (%): 100.0%
[2]; acceptor Methylαgalactopyranoside (Galα-OMe), 42 mM, lactose = 100
  Sialyltransferase activity Relative activity (%): 2.0%
[2]; acceptor Methylαgalactopyranoside (Galα-OMe), 42 mM
  Sialyltransferase activity: 0.038 nmol/min
[2]; acceptor Methylαgalactopyranosyl α1,3-galactopyranoside (Galα1,3-Galα-OMe), 8.4 mM, lactose = 100
  Sialyltransferase activity Relative activity (%): 1.6%
[2]; acceptor Methylαgalactopyranosyl α1,3-galactopyranoside (Galα1,3-Galα-OMe), 8.4 mM
  Sialyltransferase activity: 0.023 nmol/min
[2]; acceptor Methylαglucopyranoside (Glcα-OMe), 42 mM, lactose = 100
  Sialyltransferase activity Relative activity (%): 0.4%
[2]; acceptor Methylαglucopyranoside (Glcα-OMe), 42 mM
  Sialyltransferase activity: 0.008 nmol/min
[2]; acceptor Methylαmannopyranoside (Manα-OMe), 42 mM, lactose = 100
  Sialyltransferase activity Relative activity (%): 0.5%
[2]; acceptor Methylαmannopyranoside (Manα-OMe), 42 mM
  Sialyltransferase activity: 0.010 nmol/min
[2]; acceptor Methylβ-galactopyranosylβ1,3-N-acetylglucosaminide (Galβ1,3-GlcNAcβ-OMe), 42 mM, lactose = 100
  Sialyltransferase activity Relative activity (%): 76.5%
[2]; acceptor Methylβ-galactopyranosylβ1,3-N-acetylglucosaminide (Galβ1,3-GlcNAcβ-OMe), 42 mM
  Sialyltransferase activity: 1.435 nmol/min
[2]; acceptor Methylβgalactopyranoside (Galβ-OMe), 42 mM, lactose = 100
  Sialyltransferase activity Relative activity (%): 59.2%
[2]; acceptor Methylβgalactopyranoside (Galβ-OMe), 42 mM
  Sialyltransferase activity: 1.110 nmol/min
[2]; acceptor Methylβgalactopyranosyl β1,3-galactopyranoside (Galβ1,3-Galβ-OMe), 8.4 mM, lactose = 100
  Sialyltransferase activity Relative activity (%): 67.5%
[2]; acceptor Methylβgalactopyranosyl β1,3-galactopyranoside (Galβ1,3-Galβ-OMe), 8.4 mM
  Sialyltransferase activity: 0.964 nmol/min
[2]; acceptor Methylβglucopyranoside (Glcβ-OMe), 42 mM, lactose = 100
  Sialyltransferase activity Relative activity (%): 0.5%
[2]; acceptor Methylβglucopyranoside (Glcβ-OMe), 42 mM
  Sialyltransferase activity: 0.009 nmol/min
[2]; acceptor Methylβmannopyranoside (Manβ-OMe), 42 mM, lactose = 100
  Sialyltransferase activity Relative activity (%): 0.4%
[2]; acceptor Methylβmannopyranoside (Manβ-OMe), 42 mM
  Sialyltransferase activity: 0.008 nmol/min
[2]; acceptor N-Acetylgalactosamine (GalNAc), 42 mM, lactose = 100
  Sialyltransferase activity Relative activity (%): 12.2%
[2]; acceptor N-Acetylgalactosamine (GalNAc), 42 mM
  Sialyltransferase activity: 0.228 nmol/min
[2]; acceptor N-Acetylglucosamine (GlcNAc), 42 mM, lactose = 100
  Sialyltransferase activity Relative activity (%): 0.4%
[2]; acceptor N-Acetylglucosamine (GlcNAc), 42 mM
  Sialyltransferase activity: 0.008 nmol/min
[2]; acceptor N-Acetyllactosamine (Gatβ1,4-GlcNAc), 42 mM, lactose = 100
  Sialyltransferase activity Relative activity (%): 99.3%
[2]; acceptor N-Acetyllactosamine (Gatβ1,4-GlcNAc), 42 mM
  Sialyltransferase activity: 1.861 nmol/min
